Assay results from patent US20170313769A1 (Pfizer, published 2017).

Key:
[1] = molecular target: T1, Human IFNβ (mature human interferon beta) (human, UniProt P01574 22-187); experiment: cell-based or functional assay
[2] = molecular target: T1, Human IFNβ (mature human interferon …); experiment: Octet (BLI) response rank; method not described
[3] = molecular target: T1, Human IFNβ (mature human interferon …); experiment: SPR (affinity maturation); before the light chain mutations (parent antibody)
[4] = molecular target: T1, Human IFNβ (mature human interferon …); experiment: SPR, Biacore T200; antibody amine-coupled on CM5 chip, human IFNβ as analyte, 1:1 model

T1 sequence (P01574 22-187): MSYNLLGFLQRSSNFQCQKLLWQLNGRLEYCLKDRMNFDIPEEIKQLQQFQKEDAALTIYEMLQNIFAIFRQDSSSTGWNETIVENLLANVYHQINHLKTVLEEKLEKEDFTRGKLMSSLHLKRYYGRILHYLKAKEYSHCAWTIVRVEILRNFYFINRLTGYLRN

Row | Binder | IC50 (pM) pSTAT1 Inhibition [1] | Response rank (Octet) [2] | other results
1 | CTI-AF15 (antibody, human IgG1, kappa, V domains shown) VH: QVQLVQSGAEVKKPGSSVKVSCKASGYTFSRYWMHWVRQAPGQGLEWMGHIDPSDSYTYYNQKFKGRVTITADESTSTAYMELSSLRSEDTAVYYCARWDYGNLLFEYWGQGTLVTVSS VL: DIQMTQSPSSLSASVGDRVTITCRTSQDISSYLNWYQQKPGKAFKLLIYSTSRLHSGVPSRFSGSGSGTDFTLTISSLQPEDFATYYCQQGIILPITFGGGTKVEIKR | 80 pM | 3 rank | 
2 | humanized parent of CTI-AF1 before affinity maturation (antibody, V domains shown, no mutations were made in VH) VH: QVQLVQSGAEVKKPGSSVKVSCKASGYTFSRYWMHWVRQAPGQGLEWMGHIDPSDSYTYYNQKFKGRVTITADESTSTAYMELSSLRSEDTAVYYCARWDYGNLLFEYWGQGTLVTVSS VL: DIQMTQSPSSLSASVGDRVTITCRTSQDISNYLNWYQQKPGKAFKLLIYSTSRLHSGVPSRFSGSGSGTDFTLTISSLQPEDFATYYCQQGHTLPLTFGGGTKVEIK |  |  | Kd [3]: 25 nM
3 | CTI-AF5 (antibody, human IgG1, kappa, V domains shown) VH: QVQLVQSGAEVKKPGSSVKVSCKASGYTFSRYWMHWVRQAPGQGLEWMGHIDPSDSYTYYNQKFKGRVTITADESTSTAYMELSSLRSEDTAVYYCARWDYGNLLFEYWGQGTLVTVSS VL: DIQMTQSPSSLSASVGDRVTITCRTSQDISNYLNWYQQKPGKAFKLLIYTTSRLRSGVPSRFSGSGSGTDFTLTISSLQPEDFATYYCQQGIVLPITFGGGTKVEIKR | 10 pM |  | 
4 | CTI-AF16 (antibody, human IgG1, kappa, V domains shown) VH: QVQLVQSGAEVKKPGSSVKVSCKASGYTFSRYWMHWVRQAPGQGLEWMGHIDPSDSYTYYNQKFKGRVTITADESTSTAYMELSSLRSEDTAVYYCARWDYGNLLFEYWGQGTLVTVSS VL: DIQMTQSPSSLSASVGDRVTITCRTSQDISNYLNWYQQKPGKAFKLLIYTTSRLRSGVPSRFSGSGSGTDFTLTISSLQPEDFATYYCQQGIILPITFGGGTKVEIKR |  | 2 rank | IC50 (pM) ISRE Neutralization [1]: 14 pM
5 | CTI-AF20 (antibody, human IgG1, kappa, V domains shown) VH: QVQLVQSGAEVKKPGSSVKVSCKASGYTFSRYWMHWVRQAPGQGLEWMGHIDPSDSYTYYNQKFKGRVTITADESTSTAYMELSSLRSEDTAVYYCARWDYGNLLFEYWGQGTLVTVSS VL: DIQMTQSPSSLSASVGDRVTITCRTSQDISSYLNWYQQKPGKAFKLLIYTTSRLRSGVPSRFSGSGSGTDFTLTISSLQPEDFATYYCQQGIVLPITFGGGTKVEIKR | 20 pM | 8 rank | Kd [4]: 0.335 nM
6 | CTI-AF23 (antibody, human IgG1, kappa, V domains shown) VH: QVQLVQSGAEVKKPGSSVKVSCKASGYTFSRYWMHWVRQAPGQGLEWMGHIDPSDSYTYYNQKFKGRVTITADESTSTAYMELSSLRSEDTAVYYCARWDYGNLLFEYWGQGTLVTVSS VL: DIQMTQSPSSLSASVGDRVTITCRTSQDISSYLNWYQQKPGKAFKLLIYTTSRLRSGVPSRFSGSGSGTDFTLTISSLQPEDFATYYCQQSTILPLTFGGGTKVEIKR |  | 9 rank | 
7 | CTI-AF10 (antibody, human IgG1, kappa, V domains shown) VH: QVQLVQSGAEVKKPGSSVKVSCKASGYTFSRYWMHWVRQAPGQGLEWMGHIDPSDSYTYYNQKFKGRVTITADESTSTAYMELSSLRSEDTAVYYCARWDYGNLLFEYWGQGTLVTVSS VL: DIQMTQSPSSLSASVGDRVTITCRTSQDISSYLNWYQQKPGKAFKLLIYSTSRLHSGVPSRFSGSGSGTDFTLTISSLQPEDFATYYCQQSTILPLTFGGGTKVEIKR |  | 5 rank | 
8 | CTI-AF9 (antibody, human IgG1, kappa, V domains shown) VH: QVQLVQSGAEVKKPGSSVKVSCKASGYTFSRYWMHWVRQAPGQGLEWMGHIDPSDSYTYYNQKFKGRVTITADESTSTAYMELSSLRSEDTAVYYCARWDYGNLLFEYWGQGTLVTVSS VL: DIQMTQSPSSLSASVGDRVTITCRTSQDISNYLNWYQQKPGKAFKLLIFSTSRLHSGVPSRFSGSGSGTDFTLTISSLQPEDFATYYCQQSTILPLTFGGGTKVEIKR |  | 12 rank | IC50 (pM) ISRE Neutralization [1]: 75 pM
9 | CTI-AF14 (antibody, human IgG1, kappa, V domains shown) VH: QVQLVQSGAEVKKPGSSVKVSCKASGYTFSRYWMHWVRQAPGQGLEWMGHIDPSDSYTYYNQKFKGRVTITADESTSTAYMELSSLRSEDTAVYYCARWDYGNLLFEYWGQGTLVTVSS VL: DIQMTQSPSSLSASVGDRVTITCRTSQDISNYLNWYQQKPGKAFKLLIFSTSRLHSGVPSRFSGSGSGTDFTLTISSLQPEDFATYYCQQGIILPITFGGGTKVEIKR | 30 pM | 7 rank | 
10 | CTI-AF8 (antibody, human IgG1, kappa, V domains shown) VH: QVQLVQSGAEVKKPGSSVKVSCKASGYTFSRYWMHWVRQAPGQGLEWMGHIDPSDSYTYYNQKFKGRVTITADESTSTAYMELSSLRSEDTAVYYCARWDYGNLLFEYWGQGTLVTVSS VL: DIQMTQSPSSLSASVGDRVTITCRTSQDIGNYLNWYQQKPGKAFKLLIYSTSRLHSGVPSRFSGSGSGTDFTLTISSLQPEDFATYYCQQSTILPLTFGGGTKVEIKR |  | 6 rank | IC50 (pM) ISRE Neutralization [1]: 460 pM
11 | CTI-AF21 (antibody, human IgG1, kappa, V domains shown) VH: QVQLVQSGAEVKKPGSSVKVSCKASGYTFSRYWMHWVRQAPGQGLEWMGHIDPSDSYTYYNQKFKGRVTITADESTSTAYMELSSLRSEDTAVYYCARWDYGNLLFEYWGQGTLVTVSS VL: DIQMTQSPSSLSASVGDRVTITCRTSQDIDNFLQWYQQKPGKAFKLLIFSTSKLHSGVPSRFSGSGSGTDFTLTISSLQPEDFATYYCQQGIVLPITFGGGTKVEIKR |  | 11 rank | 
12 | CTI-AF27 (antibody, human IgG1, kappa, V domains shown) VH: QVQLVQSGAEVKKPGSSVKVSCKASGYTFSRYWMHWVRQAPGQGLEWMGHIDPSDSYTYYNQKFKGRVTITADESTSTAYMELSSLRSEDTAVYYCARWDYGNLLFEYWGQGTLVTVSS VL: DIQMTQSPSSLSASVGDRVTITCRTSQDIDNFLQWYQQKPGKAFKLLIFSTSKLHSGVPSRFSGSGSGTDFTLTISSLQPEDFATYYCQQGIILPITFGGGTKVEIKR | 70 pM | 10 rank | 
13 | CTI-AF4 (antibody, human IgG1, kappa, V domains shown) VH: QVQLVQSGAEVKKPGSSVKVSCKASGYTFSRYWMHWVRQAPGQGLEWMGHIDPSDSYTYYNQKFKGRVTITADESTSTAYMELSSLRSEDTAVYYCARWDYGNLLFEYWGQGTLVTVSS VL: DIQMTQSPSSLSASVGDRVTITCRTSQDISSYLNWYQQKPGKAFKLLIYSTSRLHSGVPSRFSGSGSGTDFTLTISSLQPEDFATYYCQQGIVLPITFGGGTKVEIKR |  | 4 rank | 
